Residue numbers refer to the chain shown, from its start.
T1: biotinylated human DLL3 protein expressed as a human IgG1 fusion protein (human, UniProt Q9NYJ7 27-492, limits assumed, biotinylated)
T1 sequence: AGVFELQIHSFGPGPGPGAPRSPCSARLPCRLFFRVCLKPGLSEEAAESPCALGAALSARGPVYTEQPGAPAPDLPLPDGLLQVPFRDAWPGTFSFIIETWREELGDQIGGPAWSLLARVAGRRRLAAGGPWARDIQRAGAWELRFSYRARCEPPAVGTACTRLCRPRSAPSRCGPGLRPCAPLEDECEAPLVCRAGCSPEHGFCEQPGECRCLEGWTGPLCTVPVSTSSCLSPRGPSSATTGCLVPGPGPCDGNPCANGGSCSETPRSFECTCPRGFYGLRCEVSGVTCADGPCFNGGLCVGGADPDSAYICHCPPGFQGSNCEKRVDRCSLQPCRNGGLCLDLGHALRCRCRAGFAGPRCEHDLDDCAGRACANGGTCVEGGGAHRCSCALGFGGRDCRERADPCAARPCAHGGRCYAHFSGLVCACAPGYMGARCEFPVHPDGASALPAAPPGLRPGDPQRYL

T2: cynomolgus DLL3 (cynomolgus, UniProt A0A2K5WSR1 27-490)
T2 construct: also called cyDLL3
T2 sequence: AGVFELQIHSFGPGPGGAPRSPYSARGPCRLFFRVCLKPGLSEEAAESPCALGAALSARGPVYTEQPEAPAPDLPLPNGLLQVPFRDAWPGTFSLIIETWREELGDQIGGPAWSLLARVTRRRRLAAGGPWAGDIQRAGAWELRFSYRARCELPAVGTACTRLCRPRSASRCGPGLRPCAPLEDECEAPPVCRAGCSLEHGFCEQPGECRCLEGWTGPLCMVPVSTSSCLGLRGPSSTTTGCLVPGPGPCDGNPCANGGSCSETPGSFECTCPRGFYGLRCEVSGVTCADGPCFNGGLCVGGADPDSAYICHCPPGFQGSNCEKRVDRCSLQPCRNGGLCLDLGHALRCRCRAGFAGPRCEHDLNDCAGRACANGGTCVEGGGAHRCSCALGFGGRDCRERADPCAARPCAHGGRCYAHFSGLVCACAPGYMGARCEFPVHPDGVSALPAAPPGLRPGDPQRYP

T3: human DLL3 on DLL3-expressing tumor cell lines (human, UniProt Q9NYJ7 27-618)
T3 sequence: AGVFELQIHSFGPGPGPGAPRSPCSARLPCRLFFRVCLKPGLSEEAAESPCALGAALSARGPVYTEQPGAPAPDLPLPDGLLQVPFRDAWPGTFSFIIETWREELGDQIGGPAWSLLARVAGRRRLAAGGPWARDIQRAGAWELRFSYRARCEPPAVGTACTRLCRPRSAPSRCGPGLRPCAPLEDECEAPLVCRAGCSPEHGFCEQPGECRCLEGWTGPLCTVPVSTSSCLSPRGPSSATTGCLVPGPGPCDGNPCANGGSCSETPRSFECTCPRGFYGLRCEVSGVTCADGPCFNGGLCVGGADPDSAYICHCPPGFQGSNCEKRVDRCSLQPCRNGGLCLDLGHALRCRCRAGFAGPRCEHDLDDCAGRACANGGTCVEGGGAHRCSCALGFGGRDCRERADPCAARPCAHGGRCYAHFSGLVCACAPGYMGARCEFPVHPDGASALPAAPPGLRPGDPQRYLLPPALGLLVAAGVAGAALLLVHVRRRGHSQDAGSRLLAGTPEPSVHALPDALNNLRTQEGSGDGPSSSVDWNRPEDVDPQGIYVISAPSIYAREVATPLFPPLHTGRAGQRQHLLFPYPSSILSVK

B1: 1A011 anti-DLL3 trispecific protein (other)
chain: EVQLVESGGGLVQPGGSLTLSCVASGSTSSINAIGWYRRAPGKQRELVAGISSDGSKVYIDSVKGRFTISRDNAKNSVYLQMNSLRAEDTAVYYCYYFRTVSGSSYRYWGQGTLVTVSS
notes: also called 1A11; not shown: linker 1808, anti-albumin sdAb, linker 1808, anti-CD3 fragment, His6 1819
B2: 2E02 anti-DLL3 trispecific protein (other)
chain: B1 chain with S30A, I34M, I60V, Y106Q
notes: not shown: linker 1808, anti-albumin sdAb, linker 1808, anti-CD3 fragment, His6 1819
B3: 2E05 anti-DLL3 trispecific protein (other)
chain: B1 chain with T28P, I34Y, I60S, Y106M, R107S
notes: as for B2
B4: 2H02 anti-DLL3 trispecific protein (other)
chain: B1 chain with I34M, G35A, V48A, I60A, R99H, Y106M
notes: as for B2
B5: 3A02 anti-DLL3 trispecific protein (other)
chain: EVQLVESGGGLVQPGGSLTLSCAASGSSVSFLSLAWYRQAPGKKRELVAGISADGSTAYIDSVKGRFTISRDNAKNSVYLQMNSLRAEDTAVYYCYAYRWRTRYTYWGQGTLVTVSS
notes: as for B2
B6: 3A011 anti-DLL3 trispecific protein (other)
chain: B5 chain with A53T, A58D
notes: as for B2
B7: 4D09 anti-DLL3 trispecific protein (other)
chain: B5 chain with S30K, L34M, A58D, D61L, R99E, R101T
notes: as for B2
B8: 4H011 anti-DLL3 trispecific protein (other)
chain: B5 chain with F31R, L34M, A53V, A58D, R101T, Y104L
notes: also called 4H11; not shown: linker 1808, anti-albumin sdAb, linker 1808, anti-CD3 fragment, His6 1819
B9: 3C04 anti-DLL3 trispecific protein (other)
chain: B5 chain with S28H, L34M, S56P, A58D, R101D
notes: as for B2
B10: 2C04 anti-DLL3 trispecific protein (other)
chain: B1 chain with I31R, I34M, V58L, I60A, S102L, Y106M
notes: as for B2
B11: 4D011 anti-DLL3 trispecific protein (other)
chain: B5 chain with S30R, L34M, A53V, A58D
notes: also called 4D11; not shown: linker 1808, anti-albumin sdAb, linker 1808, anti-CD3 fragment, His6 1819
B12: 2A04 anti-DLL3 trispecific protein (other)
chain: B1 chain with I34M, G35A, I60T, V101T, Y106M
notes: as for B2
B13: 2E011 anti-DLL3 trispecific protein (other)
chain: B1 chain with K57S, I60A, T100R, Y106M
notes: as for B2
B14: 1C03 anti-DLL3 trispecific protein (other)
chain: B1 chain with I34M, G35A, G55N, I60A, S102G, Y106M
notes: as for B2
B15: 2E010 anti-DLL3 trispecific protein (other)
chain: B1 chain with I34M, G35A, I60A, R99H, Y106M
notes: as for B2
B16: 4H09 anti-DLL3 trispecific protein (other)
chain: B5 chain with F31K, L34M, A58D, I60R, R101T, T102Y
notes: as for B2
B17: 3H011 anti-DLL3 trispecific protein (other)
chain: B5 chain with S30K, L34M, A58V, R101P
notes: as for B2
B18: 4E02 anti-DLL3 trispecific protein (other)
chain: B5 chain with S28Q, L34M, A58V, R101S
notes: as for B2
B19: 4H07 anti-DLL3 trispecific protein (other)
chain: B5 chain with S27R, L34M, D54N, A58D, R101S
notes: as for B2
B20: 3D07 anti-DLL3 trispecific protein (other)
chain: B5 chain with S30R, L34M, A58D, R99S, R101T
notes: as for B2
B21: 4H08 anti-DLL3 trispecific protein (other)
chain: B5 chain with S30K, L34M, A58D, I60V, R101S
notes: as for B2
B22: 4H04 anti-DLL3 trispecific protein (other)
chain: B5 chain with S30K, L34M, I51V, A58D, R99E, R101T
notes: as for B2
B23: 4B07 anti-DLL3 trispecific protein (other)
chain: B5 chain with S30G, L34M, A58V, R101T
notes: as for B2
B24: 4B011 anti-DLL3 trispecific protein (other)
chain: B5 chain with S30T, L34M, A58V, R101T, Y104G
notes: as for B2
B25: 4C06 anti-DLL3 trispecific protein (other)
chain: B5 chain with G26N, F31K, L34M, R101S
notes: as for B2
B26: 3H06 anti-DLL3 trispecific protein (other)
chain: B5 chain with F31Q, L34M, A58D, I60F, R101T, Y104G
notes: as for B2
B27: 2E01 anti-DLL3 trispecific protein (other)
chain: EVQLVESGGGLVQPGGSLTLSCVASGSTSSINAMGWYRRAPFKQGELPAGISPDGTKAYADSAKVRFTISRDNAKNSVYLQMNSLRAEDTAVYYCYYFHTVCGTSMGYWGQGTLVTVSS
notes: as for B2

biological target: T1, biotinylated human DLL3 protein …; assay: Octet BLI, 60/20/6.67/2.22 nM
Description: Using the conditioned medium with known concentrations of the anti-DLL3 trispecific proteins, the binding affinities of the anti-DLL3 trispecific proteins toward human DLL3 protein were measured using a method where biotinylated version of human DLL3 protein were expressed as a human IgG1 fusion protein, and the binding affinity measurement was carried out in an Octet instrument with streptavidin tips.

Row | Kd [nM] | Binder
1 | 3.5 | B1
2 | 4.4 | B2
3 | 3.5 | B3
4 | 4.4 | B4
5 | 7.8 | B5
6 | 7.3 | B6
7 | 8.1 | B7
8 | 3.9 | B8
9 | 4 | B9

biological target: T2, cynomolgus DLL3; assay: Octet BLI, single 60 nM

Row | Kd [nM] | Binder
10 | 3.6 | B1
11 | 3.4 | B2
12 | 4.8 | B3
13 | 5.2 | B4
14 | 9.5 | B5
15 | 8.8 | B6
16 | 8.2 | B7
17 | 5.7 | B8
18 | 5.7 | B9

biological target: T3, human DLL3 on DLL3-expressing tumor …; assay: cell-based or functional assay

Row | DMS-153 TDCC EC50 [nM] | Binder
19 | 0.17 | B1
20 | 0.12 | B2
21 | 0.043 | B10
22 | 0.072 | B3
23 | 0.096 | B4
24 | 0.06 | B7
25 | 0.098 | B11

biological target: T1, biotinylated human DLL3 protein …; assay: Octet BLI, single 50 nM
Summary of the method: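 First, biotinylated DLL3-Fc fusion is loaded onto the tips. Next, conditioned medium carrying trispecific protein at known concentration is applied as analyte. Affinity is then derived from the recorded binding.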

Row | Kd [nM] | Binder
26 | 3.7 | B1
27 | 6 | B2
28 | 5.6 | B12
29 | 6.8 | B10
30 | 3.9 | B3
31 | 2.4 | B13
32 | 6.1 | B14
33 | 4.4 | B4
34 | 4 | B15
35 | 8.1 | B5
36 | 6.8 | B6
37 | 16 | B16
38 | 2.7 | B17
39 | 3.8 | B18
40 | 4.7 | B7
41 | 16 | B19
42 | 5.9 | B20
43 | 4.5 | B8
44 | 8.9 | B21
45 | 6.1 | B22
46 | 4.3 | B23
47 | 4.5 | B9
48 | 3.9 | B24
49 | 6.8 | B25
50 | 8 | B26
51 | 5.8 | B11
52 | 4.1 | B27

biological target: T3, human DLL3 on DLL3-expressing tumor …; assay: cell-based or functional assay; remark: another data set of the same source

Row | DMS-153 TDCC EC50 [nM] | Binder
53 | 0.051 | B1
54 | 0.059 | B2
55 | 0.081 | B12
56 | 0.033 | B3
57 | 0.19 | B13
58 | 0.096 | B14
59 | 0.031 | B4
60 | 0.031 | B15
61 | 0.12 | B17
62 | 0.041 | B18
63 | 0.052 | B7
64 | 0.061 | B20
65 | 0.036 | B8
66 | 0.051 | B22
67 | 0.067 | B23
68 | 0.052 | B9
69 | 0.048 | B24
70 | 0.068 | B25
71 | 0.12 | B26
72 | 0.033 | B27

biological target: T3, human DLL3 on DLL3-expressing tumor …; assay: cell-based or functional assay; remark: another data set of the same source

Row | fold increase in TDCC potency compared to the parental DLL3 binder molecule (DH6) [fold] | Binder
73 | > 8 | B8
